From article PMC4107794 (The Journal of Cell Biology, 2014) come the findings set out here.

Assay [1] addresses FLAG-Rad18 (UniProt Q9NS91 1-495). The assay is described as follows: pull-down.
Assay [2] deals with GST-Rad18 (UniProt Q9NS91 1-495). Briefly: pull-down.
Chain of GST-Rad18 (Q9NS91 whole entry): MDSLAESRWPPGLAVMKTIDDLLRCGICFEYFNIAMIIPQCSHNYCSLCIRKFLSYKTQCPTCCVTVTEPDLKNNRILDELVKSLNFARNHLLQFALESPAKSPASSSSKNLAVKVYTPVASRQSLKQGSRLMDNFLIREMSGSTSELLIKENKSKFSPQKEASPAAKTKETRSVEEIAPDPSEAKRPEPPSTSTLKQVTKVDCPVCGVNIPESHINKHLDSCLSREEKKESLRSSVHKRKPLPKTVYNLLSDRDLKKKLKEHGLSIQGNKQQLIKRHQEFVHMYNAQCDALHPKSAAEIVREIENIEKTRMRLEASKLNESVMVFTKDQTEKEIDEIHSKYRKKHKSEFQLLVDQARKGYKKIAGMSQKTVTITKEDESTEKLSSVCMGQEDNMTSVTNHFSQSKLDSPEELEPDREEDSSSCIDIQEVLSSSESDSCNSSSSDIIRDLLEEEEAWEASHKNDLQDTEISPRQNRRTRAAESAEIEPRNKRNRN

Chain of FLAG-Rad18 (Q9NS91 whole entry): as above

B1: FLAG-SHPRH (natural protein)
chain: MSSRRKRAPPVRVDEEKRQQLHWNMHEDRRNEPIIISDDDEQPCPGSDTSSAHYIILSDSLKEEVAHRDKKRCSKVVSFSKPIEKEETVGIFSPLSVKLNIVISPYHFDNSWKAFLGELTLQLLPAQSLIENFSERSITLMSSESSNQFLIYVHSKGEDVEKQKKEPMSICDKGILVESSFSGEMLEDLGWLQKKRRIKLYQKPEGNHIIKVGIYLLEAGLAKLDFLSDANSRMKKFNQLMKKVMEKLHNSIIPDVLEEDEDDPESEPEGQDIDELYHFVKQTHQQETQSIQVDVQHPALIPVLRPYQREAVNWMLQQECFRSSPATESALHFLWREIVTSEGLKLYYNPYTGCIIREYPNSGPQLLGGILADEMGLGKTVEVLALILTHTRQDVKQDALTLPEGKVVNYFIPSHYFGGKLKKTEIQNIEFEPKEKVQCPPTRVMILTAVKEMNGKKGVSILSIYKYVSSIYRYDVQRNRSLLKRMLKCLIFEGLVKQIKGHGFSGTFTLGKNYKEEDICDKTKKQAVGSPRKIQKETRKSGNKDTDSEYLPSDTSDDDDDPYYYYYKSRRNRSKLRKKLVPSTKKGKSQPFINPDSQGHCPATSDSGITDVAMSKSTCISEFNQEHETEDCAESLNHADSDVPPSNTMSPFNTSDYRFECICGELDQIDRKPRVQCLKCHLWQHAKCVNYDEKNLKIKPFYCPHCLVAMEPVSTRATLIISPSSICHQWVDEINRHVRSSSLRVLVYQGVKKDGFLQPHFLAEQDIVIITYDVLRSELNYVDIPHSNSEDGRRLRNQKRYMAIPSPLVAVEWWRICLDEAQMVECPTVKAAEMAQRLSGINRWCISGTPVQRGLEDLFGLVVFLGIEPYCVKHWWVRLLYRPYCKKNPQHLYSFIAKILWRSAKKDVIDQIQIPPQTEEIHWLHFSPVERHFYHRQHEVCCQDVVVKLRKISDWALKLSSLDRRTVTSILYPLLRLRQACCHPQAVRGEFLPLQKSTMTMEELLTSLQKKCGTECEEAHRQLVCALNGLAGIHIIKGEYALAAELYREVLRSSEEHKGKLKTDSLQRLHATHNLMELLIARHPGIPPTLRDGRLEEEAKQLREHYMSKCNTEVAEAQQALYPVQQTIHELQRKIHSNSPWWLNVIHRAIEFTIDEELVQRVRNEITSNYKQQTGKLSMSEKFRDCRGLQFLLTTQMEELNKCQKLVREAVKNLEGPPSRNVIESATVCHLRPARLPLNCCVFCKADELFTEYESKLFSNTVKGQTAIFEEMIEDEEGLVDDRAPTTTRGLWAISETERSMKAILSFAKSHRFDVEFVDEGSTSMDLFEAWKKEYKLLHEYWMALRNRVSAVDELAMATERLRVRDPREPKPNPPVLHIIEPHEVEQNRIKLLNDKAVATSQLQKKLGQLLYLTNLEKSQDKTSGGVNPEPCPICARQLGKQWAVLTCGHCFCNECISIIIEQYSVGSHRSSIKCAICRQTTSHKEISYVFTSEKANQEEDIPVKGSHSTKVEAVVRTLMKIQLRDPGAKALVFSTWQDVLDIISKALTDNNMEFAQISRVKTFQENLSAFKRDPQINILLLPLHTGSNGLTIIEATHVLLVEPILNPAHELQAIGRVHRIGQTKPTIVHRFLIKATIEERMQAMLKTAERSHTNSSAKHSEASVLTVADLADLFTKETEELE
As to B1, the binding result in assay [1] and in assay [2] was “binds” throughout.
